According to the DeepSol protein solubility set:

Assay: soluble on expression in E. coli; label from the status in PepcDB or PDB records
In the case of “MSYEKEFLKDFEDWVKTQIQVNQLAMATSQEVAQEDGDERAKDAFIRYESKLDAYEFLLGKFDNYKNGKAFHDIPDELFGARHY”, the “soluble on expression in E. coli” value is reported as “soluble”.
In the case of “MGYNETIYHKPFIKINMPDVLGKPDATQIPDDVWLDILINYLQPQDIVNLSEINNRLSRLFKTQHTQSEQLNQKKTLGILKVFAGYSSTFLFARLNGKQRLFKTRNWSAADSDNINPILMPISLPENISVIESIQSTYKHTVVVGRDKHDQIIVATNKINQDYAKQETSHNQLIPLPLRDINISLVSAGNEEDYILNPIFSFPATQQGNCILNCIK”, the “soluble on expression in E. coli” value is reported as “not soluble”.
In the case of “MSSSNKESASDLIRAKDAGLLDIWALPSFDPHVEPEPEPEPEPVDEPAEMEEVPLDEVQPLTLEELESIRQEAWNEGFATGEKEGFHSTQLKVRQEAEVVLAAKVASLEQLMGHLLAPIAEQDTQIEKAVIHLVEHIARQVIQRELVTDSGQIASVLRDALKLLPMGAQNLRIFINPQDFLLVKAMRERHEEAWKIVEDEDLLPGGCRIETEHSRIDASVETRIALAISKMHDQLHEQVTHPAAADLSVDLDASPVSTAKTEDSDVDALDAP”, the “soluble on expression in E. coli” value is reported as “not soluble”.
For “MALAGAEVVVKMTPKSVAHVFKKEMSSLHTSLLHLKPSPFQATYLGLEMTIDHLQVVDFKMPKLSYETSASQSHMTFKLLGGSARLLGQYSAVYKTKREGQFEMIFEHFHMSVPVKRTALTKFTVASDECTLEVDESMITMSPVLPEQISAKIKSDLLDQLKEAACSNATQFFSKLNSHLIHFAEATDISQGGHPSHIDVELHFQNPTSEDDTAIHVDVTESVVNAELSKLYSSANTRFIWNDVPEIKELLKSCKTTECRFIEDGDIVSSFFDRPSIRIQSDNTVSLRLPLSTSLTTTNGKELFRIQTEVELNLEDIVLEHPENGEVFWSAKFHIKNIRILQTSSSRNFQKFATRMESWIEEHKLFMENLLNTYIQGSLPVHLRSPLAWTHRVHARPIFSTSSLSFHVHPHFSPSLRVLV”, the “soluble on expression in E. coli” value was “not soluble”.
In the case of “MSQHAFSPDENVHLSPKGWYRQASEKPGFIHDAAQAAAIEQLDRLWHELVDFKSKRNRFLGRSLRSPQVPRGLYFWGGVGRGKSFLMDAFYACVPYRRKRRIHFHHFMAETHRELRKFAGGKDPLLAYADQIAKATRLLCFDEFHVSDIADAMILGRLLSALLERGVVVVTTSNYAPDDLYPGGLQRQNFLPTIELIKRELDVLNVDGGHDYRLRELTREPLFMVPADAANEGKMEQLFRRVSTGAELAQKSITVLEREIAVKRMSPGVIWFDFMALCDGPRAQTDYLEIASEYHTVFLSGIPRLSAKQASIARRFTWLVDVFYDNRVKLIASADAPPEAIYTEGLQSGEFFRTASRLTEMQSKSYLELPHQSMTQSHDQPPPGVALLEHHHHHH”, the “soluble on expression in E. coli” value is reported as “not soluble”.
With “MGSDKIHHHHHHMFTDYVLLLFSTTPRRAKGLFNVLRGRRTVSTLFAGLTAGYLDLLDSCHEVPLEDFMAATAALTENGQLTSTATGCWQLTQAGEHRQAKLRQTLYMPQNFEVFQTTDVRRFRIVSQLALQVVSELVHHDRHYYPVTTDPGIQAQVKQWLRQQSKVELGEQIHAALTAFLTSLADPELPTVFVQGITGYQEPGLTNEQLAAQLGRQPWEASLMHTDVICQWIAWIQRHPRDPFSQLLSVLTQASAISQSAEQTYQAFLKTQQLAAIAQTRHLKMSTVREHLLEVAIWSPDFPFEMVLNHEITQQLATIFAAQPDIANWSFQEAQAALPTLDFFEFRLFQIMRCQHVRR” the “soluble on expression in E. coli” value was “not soluble”.
With “VGSIQPDFLGSVNSSLRYKNWTLRASMDMRFGGMVAIYGSHYGTAYGYLKSSMNGVDAENGGITYTSIWDGLTYDDGIIPEAIMPGGQTINTPSGTYTIAEGGELYADLVNRGIVDPQHASSWNYWNNSWGRAAVWKNNDWFHELNYIALREVSLSYRMPGKIADKIGASGINLTLTGRNLGYLLNSLPNNFNPESLRGTQAGQFMIRSVSPYTASYTFTINATF” the “soluble on expression in E. coli” value was “not soluble”.
For “SLGVYKARRFSQSTKKLGIHDKVLMAAAEEVMQGIWEADLGSGVIKKRLPLQQGKSGGARTIIFFKSANHVFFYDGWSKSGLSSKGSKEIEDDELAAYKKMANAFLAFSNKQIEDLIETGFLIEVKNER”, the “soluble on expression in E. coli” value was “not soluble”.
In the case of “MSLEAPVYKEIFGAVKIYELQKVIKMDTETEDVPMFTVQNLPREDIYKTIGEMAIIVPMKNEKLHLVDGVLKAIPHKSPIIIVSNSKRKGPNRFKQEVDLVKHFCNLTHSKVIMIHQRDPGLAEAFRETGYEDILDEKGLVRSGKGEGMLIGIMLAKAIGAKYVGFVDADNYIPGAVNEYVKDYAAGFLMSESEYAMVRLHWRHKPKVSRGTLYFKKWGRVSEITNRYLNQLISEKTAFETTIMVTGNAGEHAMTMKLAEILPFSTGYSIEPYEIVYLLERFGSWENVEEFQDVFDQGIEIFQIETLNPHFHEDKGQEHVKEMVLLSLTTIYHSKLASERLKRQILEDLRMHGIIKEDEEPPKPRVMRPIKDIDIKKWMKTLESNQETLLRFDLEGHHHHHH”, the “soluble on expression in E. coli” value is reported as “soluble”.
For “MDHRSSSPFLQILPPDEVEKLLHSMKQAKEELETLGNGDESLFLCPQKITHCSTVSWKPNNVLAPALPKQNALNFNGNEQLSHENEAHSEIPSLLTFQEKGEEDTVEVTRDNYNEIDTVEDFRSIEPALENSPKILVDDSMEATQTFIEETNDFQNDTVHSLDGTLEIENRRLCLLGMLVEMKEICKSVKVDLLLNLIPDLAPVAVQACNSASSLSRKEAIYCLVYMVKQVGAEEMEKYLEPLTTAKRTLLQIYIDRSSKDDSK”, the “soluble on expression in E. coli” value was “not soluble”.
In the case of “MGSDKIHHHHHHMDITLFKTLLKVAAIGNISKAAAVLCVTQSAVSRRLKQLEDHIGKPLLIRSGNAVRPTEAGQFVLAKAQQIVDLESQIVDKLNVNEPKQRISLCCTPAFGIGRLPSIVSAFMADNAESADLNFVFNMPEQALEGIENGRFDLAIIEHCDDLNMAGHRGYPLPDDEMIFLSAPSLGIDSPAPSIEQLFDKRLYLKNEQGCARRFLDKNLALTGHSITEFANIIYFDDLQFIMREVLAGKGISFVPIGLVVDELCRHTLMAHRIADFDHFYPRTIILGRRAPSPLLLSFINTIYIAFGMPCPSIFHTEAPFPPEGFPESL”, the “soluble on expression in E. coli” value is reported as “not soluble”.
In the case of “MHHHHHHMNSRILSTGSYLPSHIRTNADLEKMVDTSDEWIVTRSGIRERRIAAEDETVATMGFEAAKNAIEAAQINPQDIELIIVATTSHSHAYPSAACQVQGLLNIDDAISFDLAAACTGFVYALSVADQFIRAGKVKKALVIGSDLNSRKLDETDRSTVVLFGDGAGAVILEASEQEGIISTHLHASADKNNALVLAQPERGIEKSGYIEMQGNETFKLAVRELSNVVEETLLANNLDKKDLDWLVPHQANLRIITATAKKLEMDMSQVVVTLDKYANNSAATVPVALDEAIRDGRIQRGQLLLLEAFGGGWTWGSALVRF”, the “soluble on expression in E. coli” value is reported as “soluble”.
For “MSLDKIRYGIMSTAQIVPRFVAGLRESAQAEVRGIASRRLENAQKMAKELAIPVAYGSYEELCKDETIDIIYIPTYNQGHYSAAKLALSQGKPVLLEKPFTLNAAEAEELFAIAQEQGVFLMEAQKSVFLPITQKVKATIQEGGLGEILWVQSVTAYPNVDHIPWFYSREAGGGALHGSGSYPLQYLQYVLGKEIQEVTGTATYQQGATDSQCNLALKFAEGTLGNIFINVGLKIPSEMTICGTKGQIVIPNFWKTDCAYYTDAQGNTVKWSEQFTSEFTYEINHVNQCLQDKKLTSPVMTKELTIATVKIVESFYQEWFDNEGHHHHHH”, the “soluble on expression in E. coli” value was “soluble”.
For “MKIMIIGATGMAGQALVTTALNRGHQVVAVARSAEKLATLPSNPNLTSIVRDAFNLTTTDLSAVDAVVDAFATAPDHAYLHVDLATHLISQLRETTTPRVAFILGAGSLTTGDDAHLFVHDLEQDPHAASFISVPQNQLKELTFLRDVDNVNWFGVSPAADFHPGEAQPALLGTDTLLFNDQQQSGTSAGTMAVAILDELENPKHHQTRFTVADKLEHHHHHH”, the “soluble on expression in E. coli” value was “soluble”.
For “MKKRRFPRVNAVLSRWGVALSDARETQAEQARLADFEARGGLEAPAYALSPGMRTFDLAPLVEEYAQHGEALAALHDPARNQTGYRSGNGYYDTPDAEALYLMIRRYQPRRVIEVGCGNSTRITRQAALDGGLETEITAIDPWPRADIAGVVDRFEQARLEEVDPAVFAALEADDVLFIDSSHQVRMSNDVAHLFCRIIPALAPGVVIHVHDVFLPYEYPKRFFYDCPSWAEQYVLHALIQSGGYDILWPGYYLQRARPDAVEALPFLGQGRAQSFWIRKL”, the “soluble on expression in E. coli” value was “not soluble”.
For “MSLFRIQLRTMSSKTCKSDYPKEFVSFLNSSHSPYHTVHNIKKHLVSNGFKELSERDSWAGHVAQKGKYFVTRNGSSIIAFAVGGKWEPGNPIAITGAHTDSPALRIKPISKRVSEKYLQVGVETYGGAIWHSWFDKDLGVAGRVFVKDAKTGKSIARLVDLNRPLLKIPTLAIHLDRDVNQKFEFNRETQLLPIGGLQEDKTEAKTEKEINNGEFTSIKTIVQRHHAELLGLIAKELAIDTIEDIEDFELILYDHNASTLGGFNDEFVFSGRLDNLTSCFTSMHGLTLAADTEIDRESGIRLMACFDHEEIGSSSAQGADSNFLPNILERLSILKGDGSDQTKPLFHSAILETSAKSFFLSSDVAHAVHPNYANKYESQHKPLLGGGPVIKINANQRYMTNSPGLVLVKRLAEAAKVPLQLFVVANDSPCGSTIGPILASKTGIRTLDLGNPVLSMHSIRETGGSADLEFQIKLFKEFFERYTSIESEIVVEGHHHHHH”, the “soluble on expression in E. coli” value was “soluble”.
With “MEIDWLNAIPDSEDSEEDEEERQERARLLKEKEEEREACKKRYLERIEREEAQRFGKQFKIDPLTFAERLERKLIPAEKKQRYREFIPCVVDHFGGTDVHFVKAMESIKTENQLLDFLTAAHKPLIEQTEDSVLHDWLAEFYKETVTSLLEMTSITDHDLKCFKVGNVFDEVRTNAIQKKVQKMEMENFAERVREAKIKEAEERKATAEATRDVLESLEGMTLSHVKHDELEDELNTIALEELHSTTRDTSPPRTRLSTRAQSQLNAMVKHLFVPAAPTTSTEVPMEMDKDDDEMDAYDDSDLKILFSSTTKESLKMEMGEENDECNFEPSQVSKYPSFQASSQFDETRRYDYDEEGDNKELARLRRPTWRKILNYEKRIGTNFHRFTNAENANLWRRNLYEDKRKKTSKVQFVDYDSPLNKMRLFVRPNEQFFNADDGPMTDRIDFSLSDGFNVLATRKIMSPLVCGSNYDCEFMARTREGPQYLVRKTQSWMHSYCGNILGRFWYLRDRHADKYPGVKDSNYDQKRRQNFGLLRYYTLEELIEVFGLLLPDVQIAMRRGVRRENMPVSTVVKLKEKDREAVESPVQGVLLLTDWRLVHLFDNTAIVNAIIHYFPTNLGGVFFEAMTEYLTELLLDNTIEFHTIIFAFGGTPTFKKQDFLAFWKKLIVRTTQSIDVFWMAQDWCDGLNSTQEEIDQLNEFNHYVEQMFTMMRKNGNINYNYCDIRKQYNIPSLDPSFNRPNDFLLLEPIYRAYINHFVDECNCYLKGPFVKCQPRVHNGYAQRNGTKLEFSK” the “soluble on expression in E. coli” value was “soluble”.
For “MGSDKIHHHHHHMSGGDAMAKAVKQPAPDAEQIVLAIDIGGSHVKILTSAGGAERRDDSGPDLTPQQMIDKVKKLAEGLSYDVISMGYPGPVRHNKPVLDPKNLGKGWAGFDFAAQFGKPVKVVNDALMQAIGSYEGGRMLFLGLGTGLGAAMVFDNVGQPMELAHLPYRKGRSFEDYVGERGLEKRGKKKWRKYVFDVVTRLRAALQPDYVVIGGGNVDKLDALPAEARRGDNTRAFEGGFRLWRDKALIV”, the “soluble on expression in E. coli” value was “not soluble”.
For “MDKSELFLTFEAKVKGKKINLPDLKIADGVISTEALASALNASAAIAPDAFQRIIKQAYDANIMFLIQQAQIRAQEINKGEVKDWKDLVANAKDAPNQDVTVEVQAYASPDGGVELNEKLSEQREKNTTTALKKQFQKSNIKDVEINAHYTAQDWEGFKQLVEKSDIQDKELVLRVLSMYPDPEQREQEIKNISTVFRQLADDILPQLRRSRLIANVEIIGKSDDEIKRLAAQNPGRLTVEELLYSATLLESPAQKE”, the “soluble on expression in E. coli” value was “not soluble”.
